According to patent US11945844B2, “Taste and flavor-modifier proteins” (AMAI PROTEINS LTD., priority 2018, dated 2024):

What was measured:
healthy assessors [1] = experiment: Example 1B: double-blind taste assay, sweet taste threshold in soft drink model solution; type: in vivo, human; conditions: for sweetness average score: grade 0-10; for sweetness potency simulating 1 °Bx perception: relative to sucrose
Experimental: The sweetness potency of MNEI-based proteins described herein relative to sucrose is typically in the range of 1:700 to 1:16,000. Thus, for the sake of comparison, the MNEI-based proteins and MNEI (as a reference protein) solutions were initially diluted 1:1000 and further diluted as needed. In general, the sweetness threshold of sugar for most people in soft drinks is 0.32%-1.0%. Calculations of MNEI-based proteins and MNEI (as a reference protein concentrations were carried out accordingly. The solutions that were used in this study are detailed in Table 5. The solutions were prepared as follows: for each solution, an amount sweetener (sucrose/MNEI/Designer (modified) Protein; See Table 1 for details) was added as indicated in Table 3 and the solution was completed to 100 g with water (in order to obtain 1% sugar equivalent sweetener). 20 ml of each solution was poured into tasting cup and each sample was marked for blind testing according to Table 5. To evaluate the sweetness threshold for each one of the […] solutions, a double-blind taste assay was performed. The samples tested included MNEI, two MNEI designer proteins (DM08 and DM10), sucrose and mineral water. A series of concentrations were prepared by diluting the stock solution of proteins with mineral water (pH 6.9) shortly before the taste assay (Table 3). Five healthy assessors participated in this session, 2 men and 3 women, 30-50 years old of which 3 were trained tasters. Twenty ml samples were tested randomly, in comparison to sugar solution. Before each assay, assessors were requested to rinse their mouth with water and to eat a neutral-taste cracker until no residual taste remained. The test solution was held in the mouth for at least 10 seconds. The assessors then graded the sample according to their response between 0-10; 0-no sweet perception, 10-very sweet. The sweetness detection threshold was defined as the lowest concentration at which the taster recognized the sample as sweet. Sweetness potencies are reported relative to sucrose.

healthy assessors [2] = experiment: Example 1C: double-blind taste assay, sweet taste threshold in solution; type: in vivo, human; conditions: for sweetness potency compatible with / simulating 1 °Bx sugar solution: relative to sucrose
Experimental: The solutions that were used in this study are detailed in Table 4. The solutions were prepared as follows: for each solution, an amount sweetener (sucrose/MNEI/Designer Protein; See Table 1 for details) was added as indicated in Table 6 and the solution was completed to 100 g with water (in order to obtain 1% sugar equivalent sweetener). 20 ml of each solution was poured into tasting cup and each sample was marked for blind testing according to Table 6. To evaluate the sweetness threshold for each one of the […] solutions, a double-blind taste assay was performed. The samples tested included MNEI, […] ([…]), sucrose and mineral water. A series of concentrations were prepared by diluting the stock solution of proteins with mineral water (pH 6.9) shortly before the taste assay (Table 6). Six healthy assessors participated in this session, 5 men and 1 woman, 30-75 years old of which half were trained tasters The sweetness detection threshold was defined as the lowest concentration at which the taster recognized the sample as sweet. Sweetness potencies are reported relative to sucrose. Twenty ml samples were tested randomly, in comparison to sugar solution. Before each assay, assessors were requested to rinse their mouth with water and to eat a neutral-taste cracker until no residual taste remained. The test solution was held in the mouth for at least 10 seconds. The assessors then graded the sample according to their response between 0-10; 0-no sweet perception, 10-very sweet. The sweetness detection threshold was defined as the lowest concentration at which the taster recognized the sample as sweet. Sweetness potencies are reported relative to sucrose.

participants = experiment: Example 1D: blind comparison of combinations at 8.0° BX perception with 3.0° BX sugar addition; type: in vivo, human; conditions: 8.0 °BX perception (3.0° BX sugar addition)
Experimental: Further combinations were tested in blind comparison of the various combinations to sugar solution in 6 participants.

trained participants = experiment: Example 1D: blind testing of sweetness potency, aftertaste and lingering in comparison to sugar solution; type: in vivo, human; conditions: for sweetness potency at 8 °BX perception, greater than sugar / sweetness threshold, greater than sugar by weight: fold over sugar
Experimental: Based on the optimization above, the sweetness potency, the aftertaste and the lingering effect of DM08 and DM09 were tested as compared with MNEI and additional sweeteners as shown in Table 7. Test method included blind testing in 6 trained participants of each one of the proteins in comparison to sugar solution.

[3] = single substitution in MNEI, Zheng et al; cited from earlier work
[4] = single substitution in MNEI, Zheng et al; cited from earlier work; remark: listed apart in the source
[5] = Structural thermal stability (Tm); type: physicochemical
Source text: The term “structural thermal stability” or “thermal stability” as used herein refers to the ability of the modified protein to retain its 3D structure at temperatures above that of the reference protein. The 3D structural stability of a protein can be measured by any method known in the art, such as Circular Dichroism (CD), or thermal shift assays such as Differential Scanning Fluorimetry (DSF) or Differential Scanning calorimetry (DSC). The 3D structure of a protein may have an effect on the function of the protein.

[6] = Sweetness potency relative to MNEI (Table 10); type: in vivo; conditions: MNEI = 1.0
Shelf life stability = type: physicochemical; conditions: at 4° C.
Experimental: In some embodiments the modified protein has improved shelf life relative to the reference protein. Improved shelf life refers to no sensed change in the sweetness (function) or physical deterioration of a product comprising the composition (e.g. color change, phase separation etc.) after exposure of the product to any temperature up to 150° C., at times, to any temperature between 4° C. to 150°, or to 100°.

[7] = dilution factor 1:500, grade 0-10
[8] = dilution factor 1:1,000, grade 0-10
[9] = dilution factor 1:2,000, grade 0-10

## OC[C@H]1O[C@@](CO)(O[C@H]2O[C@H](CO)[C@@H](O)[C@H](O)[C@H]2O)[C@@H](O)[C@@H]1O [Sucrose, reference compound]
Healthy assessors [1]; 0.5% sucrose solution, 5 assessors
  sweetness average score: 0.63±0.6
Healthy assessors [1]; 1% sucrose solution, 5 assessors
  sweetness average score: 1.25±0.9
Healthy assessors [2]; 0.5% sucrose solution, grade 0-10, 6 assessors
  sweetness average score: 1.9±0.9
Healthy assessors [2]; 1% sucrose solution, grade 0-10, 6 assessors
  sweetness average score: 3.8±1.9
participants
  After Taste: No
  Late onset: No
  Lingering: No
Trained participants; ratio relative to sucrose, 6 trained participants
  Estimated threshold concentration: 1
Trained participants; single sweetener (Table 7)
  Additional After Taste & Notes: No
  Late onset: No
  Lingering After Taste: No

B1: E2N: MNEI with amino acid substitution E2N, CPD model; also reported by Zheng et al (protein)
chain: GNWEIIDIGPFTQNLGKFAVDEENKIGQYGRLTFNKVIRPCMKKTIYENEGFREIKGYEYQLYVYASDKLFRADISEDYKTRGRKLLRFNGPVPPP
modifications: Monelin MNEI
notes: MNEI with amino acid substitution E2N, CPD model; also reported by Zheng et al
[3]
  improved sweetness: 3 fold
[4]
  stability: slight reduced stability

B2: DM10: modified MNEI protein, SEQ ID NO: 18, Q28K/R31T/N35T/S67N (protein)
chain: GEWEIIDIGPFTQNLGKFAVDEENKIGKYGTLTFTKVIRPCMKKTIYENEGFREIKGYEYQLYVYANDKLFRADISEDYKTRGRKLLRFNGPVPPP
modifications: DM10
Healthy assessors [1]
  sweetness potency simulating 1 °Bx perception: about 1,000
[5]
  Tm (° C.) Structural thermal stability: 71 °C
[6]
  Sweetness Potency relative to MNEI: 0.5

B3: DM11: modified MNEI protein, SEQ ID NO: 19, I8T/N14K/C41T/R84L (protein)
chain: GEWEIIDTGPFTQKLGKFAVDEENKIGQYGRLTFNKVIRPTMKKTIYENEGFREIKGYEYQLYVYASDKLFRADISEDYKTRGLKLLRFNGPVPPP
modifications: DM11
Healthy assessors [2]; [7]
  sweetness average score: 0.0±0.0
Healthy assessors [2]; [8]
  sweetness average score: 0.3±0.8
Healthy assessors [2]; [9]
  sweetness average score: 0.4±0.9
Healthy assessors [2]
  sweetness potency compatible with / simulating 1 °Bx sugar solution: below 500
[5]
  Tm (° C.) Structural thermal stability: 69 °C
[6]
  Sweetness Potency relative to MNEI: 0.2

B4: DM08: modified MNEI protein, SEQ ID NO:16, E2N/E23V/Y65K (protein)
chain: GNWEIIDIGPFTQNLGKFAVDEVNKIGQYGRLTFNKVIRPCMKKTIYENEGFREIKGYEYQLYVKASDKLFRADISEDYKTRGRKLLRFNGPVPPP
modifications: DM8
Healthy assessors [1]
  sweetness potency simulating 1 °Bx perception: about 10,000
[5]
  Tm (° C.) Structural thermal stability: 81 °C
[6]
  Sweetness Potency relative to MNEI: 6.0
Trained participants
  sweetness potency at 8 °BX perception, greater than sugar: 3,500
  sweetness threshold, greater than sugar by weight: 10,000
Trained participants; single sweetener (Table 7)
  Additional After Taste & Notes: Low bitterness
  Lingering After Taste: Sweet lingering
Shelf life stability
  shelf life stability: At least 6 months

B5: DM03: modified MNEI protein, SEQ ID NO: 15, E2N/I8T/N14K/E23A/Q28K/R31T/N35T/C41T/Y65K/S67N/R84L (protein)
chain: GNWEIIDTGPFTQKLGKFAVDEANKIGKYGTLTFTKVIRPTMKKTIYENEGFREIKGYEYQLYVKANDKLFRADISEDYKTRGLKLLRFNGPVPPP
modifications: DM3
[5]
  Tm (° C.) Structural thermal stability: 81.5 °C
[6]
  Sweetness Potency relative to MNEI: Not sweet at all

B6: DM09: modified MNEI protein, SEQ ID NO:17, E2N/E23A/Y65R (protein)
chain: GNWEIIDIGPFTQNLGKFAVDEANKIGQYGRLTFNKVIRPCMKKTIYENEGFREIKGYEYQLYVRASDKLFRADISEDYKTRGRKLLRFNGPVPPP
modifications: DM9
[5]
  Tm (° C.) Structural thermal stability: 81 °C
[5]; summary of Table 10
  melting temperature compared with MNEI: at least equal or improved
[6]
  Sweetness Potency relative to MNEI: 7.5
Trained participants
  sweetness potency at 8 °BX perception, greater than sugar: 4,000
  sweetness threshold, greater than sugar by weight: 15,000
Shelf life stability
  shelf life stability: At least 6 months

B7: DM12: modified MNEI protein, SEQ ID NO: 20, I8T/C41T as printed in Table 4 (protein)
chain: GEWEIIDTGPFTQNLGKFAVDEENKIGQYGRLTFNKVIRPTMKKTIYENEGFREIKGYEYQLYVYASDKLFRADISEDYKTRGLKLLRFNGPVPPP
modifications: DM12
Healthy assessors [2]; all dilution factors (1:500, 1:1,000, 1:2,000), no noticeable dose response
  sweetness average score: ~1.0
[5]
  Tm (° C.) Structural thermal stability: 65 °C
[6]
  Sweetness Potency relative to MNEI: 0.5

B8: MNEI: single chain Monellin (MNEI) reference protein, SEQ ID NO:5, 96 amino acids (protein)
chain: GEWEIIDIGPFTQNLGKFAVDEENKIGQYGRLTFNKVIRPCMKKTIYENEGFREIKGYEYQLYVYASDKLFRADISEDYKTRGRKLLRFNGPVPPP
modifications: Monelin MNEI
Healthy assessors [1]; dilution factor 1:1,000
  sweetness average score: 2.2±1.0
Healthy assessors [1]; dilution factor 1:2,000
  sweetness average score: 0.98±0.4
Healthy assessors [1]; dilution factor 1:4,000
  sweetness average score: 0.68±0.2
Healthy assessors [1]
  sweetness potency simulating 1 °Bx perception: about 2,000
Healthy assessors [2]; [7]
  sweetness average score: 4.7±3.2
Healthy assessors [2]; [8]
  sweetness average score: 2.5±1.4
Healthy assessors [2]; [9]
  sweetness average score: 1.0±0.7
Healthy assessors [2]
  sweetness potency compatible with / simulating 1 °Bx sugar solution: about 1,000
[5]
  Tm (° C.) Structural thermal stability: 69 °C
[6]
  Sweetness Potency relative to MNEI: 1.0
Trained participants; single sweetener (Table 7)
  Lingering After Taste: Sweet lingering
Shelf life stability
  shelf life stability: At least 12 months
